Results as given in PMC8752898 (The Journal of Biological Chemistry, 2021).
Ends that are not written are not given here.

How the values were obtained:
[1] = target: T1, His6-SUMO-tagged MYC3 (44–238) (Arabidopsis thaliana, UniProt Q9FIP9); test: Fluorescence anisotropy; format: binding; conditions: in words
T1 sequence (Q9FIP9 44-238): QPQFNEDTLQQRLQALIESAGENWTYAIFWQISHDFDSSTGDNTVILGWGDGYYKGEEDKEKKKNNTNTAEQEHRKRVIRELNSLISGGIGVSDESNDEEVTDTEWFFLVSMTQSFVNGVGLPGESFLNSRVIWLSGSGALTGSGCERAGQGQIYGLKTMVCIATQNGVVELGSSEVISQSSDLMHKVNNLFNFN

FLAG-MYC3 (full-length) = test: AlphaScreen assay of interaction with FLAG-MYC3; format: binding, Arabidopsis; conditions: FLAG-MYC3 50 nM, triplicate, in words; for AlphaScreen interaction of biotin-conjugated peptide with MYC3: Biotin-MED25^CMIDM 50, 150 or 250 nM
[2] = target: T2, His6-SUMO-tagged MYC3 (44-238) (Arabidopsis thaliana, UniProt Q9FIP9 44-238); test: fluorescence polarisation
T2 sequence (looked up): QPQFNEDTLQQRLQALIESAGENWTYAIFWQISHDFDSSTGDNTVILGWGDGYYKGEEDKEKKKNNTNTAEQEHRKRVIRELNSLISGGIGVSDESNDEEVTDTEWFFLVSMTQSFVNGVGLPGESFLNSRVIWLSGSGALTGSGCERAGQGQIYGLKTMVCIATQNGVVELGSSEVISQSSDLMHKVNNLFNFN

MED25^CMIDM: CMID-like MYC-interacting domain, amino acids 614 to 655 of MED25 (YVGKADFLVFRAMSQHGFLGQLQDKKLCAVIQLPSQTLLLSV; also: biotin-conjugated)
interaction between MYC3 and CMIDM in FA assay ([1]; Fig. 5B): confirmed | AlphaScreen interaction of biotin-conjugated peptide with MYC3 (FLAG-MYC3 (full-length)): confirmed

Biotin-MED25^CMIDM: biotin-conjugated CMIDM peptide of MED25 (614–655) (YVGKADFLVFRAMSQHGFLGQLQDKKLCAVIQLPSQTLLLSV; not fully specified (N-terminus); also: biotin-conjugated)
AlphaScreen interaction of biotin-conjugated peptide with MYC3 (FLAG-MYC3 (full-length)): directly interact with MYC3 | AlphaScreen interaction of partial peptides with FLAG-MYC3 (FLAG-MYC3 (full-length); peptide 150 nM each (Fig. 4D)): strong interaction

JAZ10^CMID: cryptic MYC-interacting domain of JAZ10 (26–58aa) (FQKFLDRRRSFRDIQGAISKIDPEIIKSLLAST; also: 5-carboxyfluorescein-conjugated) [reference compound]
binding affinity for MYC compared with Jas motif of JAZ and MED25 [1]: stronger binding affinity for MYC than both the Jas motif of JAZ and MED25

B1: fluorescein-conjugated JAZ10^CMID (26-58aa) (peptide, UniProt Q93ZM9 26-58, looked up)
peptide: FQKFLDRRRSFRDIQGAISKIDPEIIKSLLAST
modifications: also: 5-carboxyfluorescein-conjugated
Kd [2]: 470 nM

B2: fluorescein-conjugated MED25^CMIDM (614-655aa) (peptide, UniProt Q7XYY2 614-655, looked up)
peptide: YVGKADFLVFRAMSQHGFLGQLQDKKLCAVIQLPSQTLLLSV
modifications: also: 5-carboxyfluorescein-conjugated
Kd [2]: 1900 nM
